The values that follow come from paper PMC11461855 (Nature Communications, 2024).

For the test, the target named is T1, mMED15-FLAG (Flag-tagged mouse Med15) (mouse, UniProt Q924H2 1-789).
T1 sequence: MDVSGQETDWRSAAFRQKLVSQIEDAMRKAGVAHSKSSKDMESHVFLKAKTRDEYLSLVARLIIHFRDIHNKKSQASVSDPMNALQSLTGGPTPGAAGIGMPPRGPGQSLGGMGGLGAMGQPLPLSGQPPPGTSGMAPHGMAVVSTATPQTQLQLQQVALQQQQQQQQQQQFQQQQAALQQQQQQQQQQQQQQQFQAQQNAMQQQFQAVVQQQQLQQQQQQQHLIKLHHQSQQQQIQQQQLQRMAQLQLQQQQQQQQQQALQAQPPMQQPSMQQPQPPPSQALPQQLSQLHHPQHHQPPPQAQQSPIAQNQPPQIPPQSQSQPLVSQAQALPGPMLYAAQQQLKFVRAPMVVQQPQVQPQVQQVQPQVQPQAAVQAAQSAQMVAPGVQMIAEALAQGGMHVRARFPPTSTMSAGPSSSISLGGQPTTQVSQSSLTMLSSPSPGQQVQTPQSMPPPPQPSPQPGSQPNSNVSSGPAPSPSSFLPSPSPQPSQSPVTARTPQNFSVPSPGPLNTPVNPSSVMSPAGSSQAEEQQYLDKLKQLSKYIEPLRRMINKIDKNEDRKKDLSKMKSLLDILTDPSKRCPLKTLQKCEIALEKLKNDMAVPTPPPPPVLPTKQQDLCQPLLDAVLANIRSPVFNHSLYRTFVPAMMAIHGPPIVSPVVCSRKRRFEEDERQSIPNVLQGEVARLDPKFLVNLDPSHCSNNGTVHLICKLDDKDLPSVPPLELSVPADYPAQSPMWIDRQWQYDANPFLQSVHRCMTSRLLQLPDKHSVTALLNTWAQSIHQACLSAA
Put plainly: pull-down.

B1: HA-mNKX6.1 (HA-tagged full-length mouse Nkx6-1) (natural protein)
chain: MLAVGAMEGPRQSAFLLSSPPLAALHSMAEMKTPLYPAAYPPLPTGPPSSSSSSSSSSSPSPPLGSHNPGGLKPPAAGGLSSLGSPPQQLSAATPHGINDILSRPSMPVASGAALPSASPSGSSSSSSSSASATSASAAAAAAAAAAAAAASSPAGLLAGLPRFSSLSPPPPPPGLYFSPSAAAVAAVGRYPKPLAELPGRTPIFWPGVMQSPPWRDARLACTPHQGSILLDKDGKRKHTRPTFSGQQIFALEKTFEQTKYLAGPERARLAYSLGMTESQVKVWFQNRRTKWRKKHAAEMATAKKKQDSETERLKGTSENEEDDDDYNKPLDPNSDDEKITQLLKKHKSSGGSLLLHASEAEGSS
In the case of B1, the binding result is reported as “binds”.
